According to article PMC5928126 (Nature Communications, 2018):

Biological target: the molecule itself
Assay: cryo-EM structure

B1: measles virus fusion glycoprotein (F) (natural protein)
chain: QIHWGNLSKIGVVGIGSASYKVMTRSSHQSLVIKLMPNITLLNNCTRVEIAEYRRLLRTVLEPIRDALNAMTQNIRPVQSVASSRRHKRFAGVVLAGAALGVATAAQITAGIALHQSMLNSQAIDNLRASLETTNQAIEAIRQAGQEMILAVQGVQDYINNELIPSMNQLSCDLIGQKLGLKLLRYYTEILSLFGPSLRDPISAEISIQALSYALGGDINKVLEKLGYSGGDLLGILESRGIKARITHVDTESYFIVLSIAYPTLSEIKGVIVHRLEGVSYNIGSQEWYTTVPKYVATQGYLISNFDESSCTFMPEGTVCSQNALYPMSPLLQECLRGSTKSCARTLVSGSFGNRFILSQGNLIANCASILCKCYTTGTIINQDPDKILTYIAADHCPVVEVNGVTIQVGSRRYPDAVYLHRIDLGPPISLERLDVGTNLGNAIAKLEDAKELLESSDQILRSMKGLSSTSIVYILIAVCLGGLIGIPALICCCRGRCNKKGEQVGMSRPGLKPDLTGTSKSYVRSL
notes: also called MeV F; pre-fusion F
stoichiometry N: 3
